Results published in CN115368455A.

Biological target: SIRPg (UniProt Q9P1W8)
Test: SPR (BIAcore X-100); ratio of the affinity for SIRPa to that for SIRPg

UniProt Q9P1W8, sequence (Q9P1W8 29-360 limits assumed): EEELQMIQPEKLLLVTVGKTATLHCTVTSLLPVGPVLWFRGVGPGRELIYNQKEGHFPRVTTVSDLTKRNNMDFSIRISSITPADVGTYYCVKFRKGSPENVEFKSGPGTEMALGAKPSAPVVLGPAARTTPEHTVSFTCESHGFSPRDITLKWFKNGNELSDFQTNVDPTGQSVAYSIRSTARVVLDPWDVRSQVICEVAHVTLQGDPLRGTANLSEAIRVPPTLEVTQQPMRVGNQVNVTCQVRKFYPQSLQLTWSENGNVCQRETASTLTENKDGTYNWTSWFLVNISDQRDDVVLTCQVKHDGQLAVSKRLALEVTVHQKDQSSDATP

B1: KWAR23 (antibody, from another filing, V domains shown)
VH: EVQLQQSGAELVKPGASVKLSCTASGFNIKDYYIHWVQQRTEQGLEWIGRIDPEDGETKYAPKFQDKATITADTSSNTAYLHLSSLTSEDTAVYYCARWGAYWGQGTLVTVSS
VL: QIVLTQSPAIMSASPGEKVTLTCSASSSVSSSYLYWYQQKPGSSPKLWIYSTSNLASGVPARFSGSGSGTSYSLTISSMEAEDAASYFCHQWSSYPRTFGAGTKLELK
For B1, the SIRPa/SIRPg亲和力比值 was < 1.
